Reference: the RNAGym collection of RNA variant scans (doi:10.7554/elife.80360)

B1: Hairpin Ribozyme (parent)
chain: GUCCUCUUUCACGUGCGCGUGAAAGAGAGAAGUGAACCAGAGAAACACACGUUGUGGUAUAUUACCUGGUA

Variants of: B1
Assay: self-cleavage, relative activity (ratio to wild type); higher = more cleavage; co-transcriptional

Variant	self-cleavage
A26G A41U	1.24
U7G A47C	0.234
A45C A61C	0.239
G17U G40C	0.18
A35U C66U	0.151
A24U G32U	0.128
A49G U53A	0.4
G40C G42U	0.191
U63G C65G	0.243
C50A U60G	0.248
C37A U70C	0.438
G19U A45C	0.292
A31U C37U	0.187
A31G A47U	0.0555
A36C A61U	0.162
G21C G40A	0.258
C16U A35U	0.916
A43U A59C	0.12
A45G A71G	0.269
G21A C50G	0.217
A43U C65G	0.155
G17C U63C	0.276
G17A G27C	0.074
C3G A71C	0.58

Variant	self-cleavage
A41C C65U	0.513
U2C G51A	0.219
C48U A71U	0.146
G19U G25C	0.537
A49C U58A	0.082
A39G G69A	0.112
G17U G54A	0.642
U55A U58G	0.183
C10G G29C	0.106
U52C G54A	0.568
G27U C46U	0.12
A22C A41U	1.06
G21U G29A	0.142
C6U U8G	0.431
C38A C50A	0.0919
A28U G57U	0.235
U20G G21A	0.846
A45G C66U	0.218
A59G A71U	0.106
U5A U14G	0.233
A61G U63A	0.144
U52G U53C	1
A39U A59C	0.172
G34C U62G	0.175

Variant	self-cleavage
U9C A41G	0.706
U8A G17A	0.742
G17C A31U	0.0868
C3U C18A	0.641
U9C U70G	0.687
C12G G29C	0.13
U55C U60G	0.347
A23C A49G	0.393
C65U A71G	0.467
A11U A43G	0.135
G17U G69C	0.296
U5A C38U	0.0767
C12A A44G	0.114
C48U U63C	0.19
U5G C37A	0.23
U52A C66U	0.604
U7C G17A	0.863
U8G U33G	0.111
A44C A61C	0.288
C37U A61U	0.248
G25A U58C	0.581
A41C A59G	0.152
G32C C37A	0.125
G29U G42A	0.0859

Variant	self-cleavage
C3U A45G	0.101
C3A U8C	0.427
A23C G42A	0.287
C38U A64G	0.306
G29C G69U	0.119
A41C A43U	0.13
G34C C48A	0.411
U20A C38G	0.19
C3A C18A	0.634
C18A A26G	0.888
U9A A28G	0.748
G34U C65U	1.3
A26G U70A	1.06
C3G G13A	0.255
U14A A43G	0.147
A28U C37G	0.193
U9G A45C	0.0983
G17U G56C	0.126
U53G G68A	0.179
C38U A61G	0.26
C12G A61G	0.154
C46A U63G	0.092
G21C G54C	0.305
C6U A59U	0.127

Variant	self-cleavage
G32A U55G	0.15
C18G U20G	0.724
C4G A24C	0.177
U7G A30G	0.081
G13U G17A	0.69
A41G A45G	0.225
C6A U58G	0.559
A28U A39U	0.222
A39C A47G	0.172
U5A C18A	0.525
A64G C65U	0.215
G21A U55C	0.242
A35C G40C	0.184
A26U U67C	0.176
A36C C37G	0.215
U5G C65U	0.218
A26U A47U	0.0699
G34A G69A	0.568
G27A G69C	0.198
U20A A45U	0.172
C3G C6G	0.214
C12A A49C	0.0858
G57U G68A	0.188
G34U G56A	0.788

Variant	self-cleavage
G42U G69C	0.136
U14G C66G	0.173
G25C A39U	0.262
U5C A26G	1.26
C6G A36U	0.215
A28C G69A	0.168
U7G U60G	0.484
G57A U58G	0.123
G1A G27C	0.213
U2C C66U	0.0916
G21A A61C	0.253
U9A G19A	0.588
G1U U52C	0.261
A23C C38G	0.0489
U5G C10U	0.317
U8C A41C	0.72
G25A A35C	0.738
A39G A45U	0.111
C38A C48G	0.122
A31U G69U	0.105
C4A A64U	0.0608
G17A U60C	1.36
C38G A49U	0.137
C12G C16U	0.812

Variant	self-cleavage
G29C A39G	0.0911
U33A G57A	0.137
A59C U67A	0.241
G21A G69C	0.246
A28C A36G	0.552
A28C A36C	0.32
A43G C50G	0.133
G13A A44U	0.133
G51A A61C	0.0891
G13C A49G	0.424
G29U A30U	0.176
G1C G25C	0.159
A30C A71G	0.247
A11G C18U	0.939
A26U A71G	0.781
G13A A23U	0.734
A49U G51C	0.166
A41G U62G	0.325
C3U C66U	0.239
U70G A71U	1.26
C18G A39G	0.281
C46U U70G	0.189
C46U U70A	0.255
